{
  "source": "patent US20240368565A1",
  "about": "“COMPLEMENTATION-BASED TAGS AND REPORTERS FOR DUAL-MODALITY LABELING” (Promega Corporation, priority 2023, published 2024)",
  "key": {"[1]": {"assay": "Labeling kinetics of LgHT-LgBiT variants with TMR HaloTag ligand in E. coli lysates (fluorescence polarization)", "assay_type": "biochemical", "details": "200 micromolar HaloTag[3-19] synthetic peptide, 10 nM TMR HaloTag ligand, versus M2F control"}, "[2]": {"assay": "Labeling kinetics with various HaloTag ligands (fluorescence polarization)", "assay_type": "biochemical", "details": "proteins at 10 nM, ligand at 2.5 nM, Tris-buffered saline+0.01% CHAPS", "description": "FIG. 132. Labeling kinetics of HaloTag7 and HaloTag[22-297](M2F+D53G+K140E)-12×Gly/Ser-LgBiT-3×Gly/Ser-6×His with HaloTag ligand JF549. Fluorescence polarization was monitored over time to observe labeling kinetics of JF549 HaloTag ligand by HaloTag standard protein or HaloTag[22-297](M2F+D53G+K140E)-12×Gly/Ser-LgBiT-3×Gly/Ser-6×His. The experiment was completed in Tris-buffered saline+0.01% CHAPS with proteins at 10 nM and ligand at 2.5 nM.\nFIG. 133. Labeling kinetics of HaloTag7 and HaloTag[22-297](M2F+D53G+K140E)-12×Gly/Ser-LgBiT-3×Gly/Ser-6×His with HaloTag ligand JF503. Fluorescence polarization was monitored over time to observe labeling kinetics of JF503 HaloTag ligand by HaloTag standard protein or HaloTag[22-297](M2F+D53G+K140E)-12×Gly/Ser-LgBiT-3×Gly/Ser-6×His. The experiment was completed in Tris-buffered saline+0.01% CHAPS with proteins at 10 nM and ligand at 2.5 nM.\nFIG. 134. Labeling kinetics of HaloTag7 and HaloTag[22-297](M2F+D53G+K140E)-12×Gly/Ser-LgBiT-3×Gly/Ser-6×His with HaloTag ligand JFX554. Fluorescence polarization was monitored over time to observe labeling kinetics of JFX554 HaloTag ligand by HaloTag standard protein or HaloTag[22-297](M2F+D53G+K140E)-12×Gly/Ser-LgBiT-3×Gly/Ser-6×His. The experiment was completed in Tris-buffered saline+0.01% CHAPS with proteins at 10 nM and ligand at 2.5 nM.\nFIG. 135. Labeling kinetics of HaloTag7 and HaloTag[22-297](M2F+D53G+K140E)-12×Gly/Ser-LgBiT-3×Gly/Ser-6×His with HaloTag ligand Oregon Green. Fluorescence polarization was monitored over time to observe labeling kinetics of Oregon Green HaloTag ligand by HaloTag standard protein or HaloTag[22-297](M2F+D53G+K140E)-12×Gly/Ser-LgBiT-3×Gly/Ser-6×His. The experiment was completed in Tris-buffered saline+0.01% CHAPS with proteins at 10 nM and ligand at 2.5 nM.\nFIG. 136. Labeling kinetics of HaloTag7 and HaloTag[22-297](M2F+D53G+K140E)-12×Gly/Ser-LgBiT-3×Gly/Ser-6×His with a FAM HaloTag ligand. Fluorescence polarization was monitored over time to observe labeling kinetics of FAM HaloTag ligand by HaloTag standard protein or HaloTag[22-297](M2F+D53G+K140E)-12×Gly/Ser-LgBiT-3×Gly/Ser-6×His. The experiment was completed in Tris-buffered saline+0.01% CHAPS with proteins at 10 nM and ligand at 2.5 nM."}, "DualTag peptide": {"system": "DualTag peptide", "assay": "Dissociation kinetics after complementation with synthetic peptide (dilution, luminescence)", "details": "100 nM protein, 200 nM peptide, diluted to 1 pM, furimazine", "procedure": "After preincubation with peptide, samples were diluted to 1 pM in either buffer alone or buffer 100 nM Tag peptide. At various time points, samples were transferred into luminescent substrate (Furimazine) to monitor dissociation of the complex."}, "[3]": {"system": "synthetic HaloTag[3-19] peptide", "assay": "Stabilization of activity of LgHT-LgBiT variants by synthetic peptides in E. coli lysates", "assay_type": "biochemical", "details": "10 micromolar or more synthetic peptide, 10 minutes at temperature, 50 nM JF646 HaloTag ligand"}, "[4]": {"details": "10 nM protein, 125 micromolar HaloTag[3-19] synthetic peptide, 10 minutes, 2.5 nM TMR HaloTag ligand"}},
  "data": [
    {"molecule": "M2F+D53G+V177E: reporter variant of FIG. 53 (protein) MFHYVDVGPRDGTPVLFLHGNPTSSYVWRNIIPHVAPTHRCIAPDLIGMGKSGKPDLGYFFDDHVRFMDAFIEALGLEEVVLVIHDWGSALGFHWAKRNPERVKGIAFMEFIRPIPTWDEWPEFARETFQAFRTTDVGRKLIIDQNVFIEGTLPMGVVRPLTEVEMDHYREPFLNPEDREPLWRFPNELPIAGEPANIVALVEEYMDWLHQSPVPKLLFWGTPGVLIPPAEAARLAKSLPNCKAVDIGPGLNLLQEDNPDLIGSEIARWLSTLEISGGSGGSGGGGSGGMVFTLEDFVGDWEQTAAYNLDQVLEQGGVSSLLQNLAVSVTPIQRIVRSGENALKIDIHVIIPYEGLSADQMAQIEEVFKVVYPVDDHHFKVILPYGTLVIDGVTPNMLNYFGRPYEGIAVFDGKKITVTGTLWNGNKIIDERLITPDGSMLFRVTINSGSGHHHHHH", "values": [
      {"measurement": "Labeling with TMR HaloTag ligand, response to synthetic peptide complementation", "setting": "[1]", "value": "faster ligand binding and labeling"}
    ]},
    {"molecule": "M2F+K140E: reporter variant of FIG. 54 and 58 (protein) MFHYVDVGPRDGTPVLFLHGNPTSSYVWRNIIPHVAPTHRCIAPDLIGMGKSDKPDLGYFFDDHVRFMDAFIEALGLEEVVLVIHDWGSALGFHWAKRNPERVKGIAFMEFIRPIPTWDEWPEFARETFQAFRTTDVGRELIIDQNVFIEGTLPMGVVRPLTEVEMDHYREPFLNPVDREPLWRFPNELPIAGEPANIVALVEEYMDWLHQSPVPKLLFWGTPGVLIPPAEAARLAKSLPNCKAVDIGPGLNLLQEDNPDLIGSEIARWLSTLEISGGSGGSGGGGSGGMVFTLEDFVGDWEQTAAYNLDQVLEQGGVSSLLQNLAVSVTPIQRIVRSGENALKIDIHVIIPYEGLSADQMAQIEEVFKVVYPVDDHHFKVILPYGTLVIDGVTPNMLNYFGRPYEGIAVFDGKKITVTGTLWNGNKIIDERLITPDGSMLFRVTINSGSGHHHHHH", "values": [
      {"measurement": "Labeling with TMR HaloTag ligand, response to synthetic peptide complementation", "setting": "[1]", "value": "better fold response to complementation with the peptide"}
    ]},
    {"molecule": "M2F+D53G+K140E: triple mutant reporter, best candidate protein (protein) MFHYVDVGPRDGTPVLFLHGNPTSSYVWRNIIPHVAPTHRCIAPDLIGMGKSGKPDLGYFFDDHVRFMDAFIEALGLEEVVLVIHDWGSALGFHWAKRNPERVKGIAFMEFIRPIPTWDEWPEFARETFQAFRTTDVGRELIIDQNVFIEGTLPMGVVRPLTEVEMDHYREPFLNPVDREPLWRFPNELPIAGEPANIVALVEEYMDWLHQSPVPKLLFWGTPGVLIPPAEAARLAKSLPNCKAVDIGPGLNLLQEDNPDLIGSEIARWLSTLEISGGSGGSGGGGSGGMVFTLEDFVGDWEQTAAYNLDQVLEQGGVSSLLQNLAVSVTPIQRIVRSGENALKIDIHVIIPYEGLSADQMAQIEEVFKVVYPVDDHHFKVILPYGTLVIDGVTPNMLNYFGRPYEGIAVFDGKKITVTGTLWNGNKIIDERLITPDGSMLFRVTINSGSGHHHHHH", "values": [
      {"measurement": "Labeling with TMR HaloTag ligand, response to synthetic peptide complementation", "setting": "[1]", "value": "best dynamic range of all combinations tested"},
      {"measurement": "Function with FAM HaloTag ligand", "setting": "[2]", "value": "functional"},
      {"measurement": "Function with JF503 HaloTag ligand", "setting": "[2]", "value": "functional"},
      {"measurement": "Function with JF549 HaloTag ligand", "setting": "[2]", "value": "functional"},
      {"measurement": "Function with JFX554 HaloTag ligand", "setting": "[2]", "value": "functional"},
      {"measurement": "Function with Oregon Green HaloTag ligand", "setting": "[2]", "value": "functional"}
    ]},
    {"molecule": "LgBiT: polypeptide component of a bioluminescent complex (β1-9-like polypeptide) (protein) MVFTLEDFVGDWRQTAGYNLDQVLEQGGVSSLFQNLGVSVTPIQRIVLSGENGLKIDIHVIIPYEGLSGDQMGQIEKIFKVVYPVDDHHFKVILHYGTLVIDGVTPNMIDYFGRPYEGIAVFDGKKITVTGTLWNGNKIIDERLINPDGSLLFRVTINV", "values": [
      {"measurement": "Dissociation from the DualTag peptide", "setting": "DualTag peptide", "value": "faster dissociation"}
    ]},
    {"molecule": "D53G+V177E: reporter variant of FIG. 50 (protein) MFHYVDVGPRDGTPVLFLHGNPTSSYVWRNIIPHVAPTHRCIAPDLIGMGKSGKPDLGYFFDDHVRFMDAFIEALGLEEVVLVIHDWGSALGFHWAKRNPERVKGIAFMEFIRPIPTWDEWPEFARETFQAFRTTDVGRKLIIDQNVFIEGTLPMGVVRPLTEVEMDHYREPFLNPEDREPLWRFPNELPIAGEPANIVALVEEYMDWLHQSPVPKLLFWGTPGVLIPPAEAARLAKSLPNCKAVDIGPGLNLLQEDNPDLIGSEIARWLSTLEISGGSGGSGGGGSGGMVFTLEDFVGDWEQTAAYNLDQVLEQGGVSSLLQNLAVSVTPIQRIVRSGENALKIDIHVIIPYEGLSADQMAQIEEVFKVVYPVDDHHFKVILPYGTLVIDGVTPNMLNYFGRPYEGIAVFDGKKITVTGTLWNGNKIIDERLITPDGSMLFRVTINS", "values": [
      {"measurement": "Optimal temperature of peptide stabilization versus the non-peptide condition", "setting": "[3]", "value": "~35", "unit": "°C"}
    ]},
    {"molecule": "M49F+L57I: reporter variant of FIG. 52 (protein) MFHYVDVGPRDGTPVLFLHGNPTSSYVWRNIIPHVAPTHRCIAPDLIGFGKSDKPDIGYFFDDHVRFMDAFIEALGLEEVVLVIHDWGSALGFHWAKRNPERVKGIAFMEFIRPIPTWDEWPEFARETFQAFRTTDVGRKLIIDQNVFIEGTLPMGVVRPLTEVEMDHYREPFLNPVDREPLWRFPNELPIAGEPANIVALVEEYMDWLHQSPVPKLLFWGTPGVLIPPAEAARLAKSLPNCKAVDIGPGLNLLQEDNPDLIGSEIARWLSTLEISGGSGGSGGGGSGGMVFTLEDFVGDWEQTAAYNLDQVLEQGGVSSLLQNLAVSVTPIQRIVRSGENALKIDIHVIIPYEGLSADQMAQIEEVFKVVYPVDDHHFKVILPYGTLVIDGVTPNMLNYFGRPYEGIAVFDGKKITVTGTLWNGNKIIDERLITPDGSMLFRVTINS", "values": [
      {"measurement": "Optimal temperature of peptide stabilization versus the non-peptide condition", "setting": "[3]", "value": "~40", "unit": "°C"}
    ]},
    {"molecule": "M2F+D53S+V177E: more highly stabilized purified reporter variant of FIG. 60 (protein) MFHYVDVGPRDGTPVLFLHGNPTSSYVWRNIIPHVAPTHRCIAPDLIGMGKSSKPDLGYFFDDHVRFMDAFIEALGLEEVVLVIHDWGSALGFHWAKRNPERVKGIAFMEFIRPIPTWDEWPEFARETFQAFRTTDVGRKLIIDQNVFIEGTLPMGVVRPLTEVEMDHYREPFLNPEDREPLWRFPNELPIAGEPANIVALVEEYMDWLHQSPVPKLLFWGTPGVLIPPAEAARLAKSLPNCKAVDIGPGLNLLQEDNPDLIGSEIARWLSTLEISGGSGGSGGGGSGGMVFTLEDFVGDWEQTAAYNLDQVLEQGGVSSLLQNLAVSVTPIQRIVRSGENALKIDIHVIIPYEGLSADQMAQIEEVFKVVYPVDDHHFKVILPYGTLVIDGVTPNMLNYFGRPYEGIAVFDGKKITVTGTLWNGNKIIDERLITPDGSMLFRVTINS", "values": [
      {"measurement": "Loss of activity at 37° C. temperature challenge", "setting": "[4]", "value": "loses less than half of its activity"}
    ]},
    {"molecule": "M49F+S89A: reporter variant of FIG. 51 (protein) MFHYVDVGPRDGTPVLFLHGNPTSSYVWRNIIPHVAPTHRCIAPDLIGFGKSDKPDLGYFFDDHVRFMDAFIEALGLEEVVLVIHDWGAALGFHWAKRNPERVKGIAFMEFIRPIPTWDEWPEFARETFQAFRTTDVGRKLIIDQNVFIEGTLPMGVVRPLTEVEMDHYREPFLNPVDREPLWRFPNELPIAGEPANIVALVEEYMDWLHQSPVPKLLFWGTPGVLIPPAEAARLAKSLPNCKAVDIGPGLNLLQEDNPDLIGSEIARWLSTLEISGGSGGSGGGGSGGMVFTLEDFVGDWEQTAAYNLDQVLEQGGVSSLLQNLAVSVTPIQRIVRSGENALKIDIHVIIPYEGLSADQMAQIEEVFKVVYPVDDHHFKVILPYGTLVIDGVTPNMLNYFGRPYEGIAVFDGKKITVTGTLWNGNKIIDERLITPDGSMLFRVTINS", "values": [
      {"measurement": "Optimal temperature of peptide stabilization versus the non-peptide condition", "setting": "[3]", "value": "~35", "unit": "°C"}
    ]}
  ]
}
